Source: article PMC8809517, “Cofactor-independent RNA editing by a synthetic S-type PPR protein”
Where a chain is given by its changes, count along the chain named.

Experiments:
Assay in all cases: high-throughput RNA pulldown from lysate on Ni-NTA beads; HRP: 50 mM Tris pH 8, 150 mM NaCl, 1 mM beta-mercaptoethanol, 50 ug/ml BSA, 3 ug/ml yeast RNA, 0.5% heparin; ITC and FP: Tris pH 8, 200 mM KCl, 5% glycerol; MST: 50 mM Tris pH 8, 200 mM NaCl, 1 mM DTT, BSA, heparin, 0.05% Tween 20
Details in all cases: tags: N-terminal His-eGFP
[1] = target: T1, GFP-9S library array, motif 4 ND N98P;D124W (synthetic construct, N98P;D124W)
T1 chain: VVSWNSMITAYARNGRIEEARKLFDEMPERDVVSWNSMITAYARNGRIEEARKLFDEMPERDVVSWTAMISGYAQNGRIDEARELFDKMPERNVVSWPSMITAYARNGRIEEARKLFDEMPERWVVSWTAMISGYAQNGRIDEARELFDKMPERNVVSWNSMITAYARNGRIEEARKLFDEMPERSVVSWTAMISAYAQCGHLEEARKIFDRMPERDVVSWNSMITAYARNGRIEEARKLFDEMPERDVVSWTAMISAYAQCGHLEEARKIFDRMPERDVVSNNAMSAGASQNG

[2] = target: T2, GFP-9S library array, motif 4 ND N98E;D124M (synthetic construct, N98E;D124M)
T2 chain: T1 chain with P98E, W124M

[3] = target: T3, GFP-9S library array, motif 4 ND N98P;D124H (synthetic construct, N98P;D124H)
T3 chain: T1 chain with W124H

[4] = target: T4, GFP-9S library array, motif 4 ND N98D;D124K (synthetic construct, N98D;D124K)
T4 chain: T1 chain with P98D, W124K

[5] = target: T5, GFP-9S library array, motif 4 ND N98F;D124L (synthetic construct, N98F;D124L)
T5 chain: T1 chain with P98F, W124L

## AUUACACGUGA (ssRNA) [Cy5-rpoA]
[1]; label: 5' Cy5
  Kd: 69.3 nM
[2]; label: 5' Cy5
  Kd: 105 nM
[3]; label: 5' Cy5
  Kd: 94.4 nM
[4]; label: 5' Cy5
  Kd: 154 nM
[5]; label: 5' Cy5
  Kd: 76.3 nM

## AUUAGACGUGA (ssRNA) [Cy5-rpoA-G]
[1]; label: 5' Cy5
  Kd: 77.7 nM
[2]; label: 5' Cy5
  Kd: 136 nM
[3]; label: 5' Cy5
  Kd: 143 nM
[4]; label: 5' Cy5
  Kd: 134 nM
[5]; label: 5' Cy5
  Kd: 90.2 nM

## AUUAAACGUGA (ssRNA) [IR-rpoA-A]
[1]; label: 5' IRDye 800CW
  Kd: 44.6 nM
[2]; label: 5' IRDye 800CW
  Kd: 360 nM
[3]; label: 5' IRDye 800CW
  Kd: 332 nM
[4]; label: 5' IRDye 800CW
  Kd: 334 nM
[5]; label: 5' IRDye 800CW
  Kd: 232 nM

## AUUAUACGUGA (ssRNA) [IR-rpoA-U]
[1]; label: 5' IRDye 800CW
  Kd: 81.9 nM
[2]; label: 5' IRDye 800CW
  Kd: 206 nM
[3]; label: 5' IRDye 800CW
  Kd: 143 nM
[4]; label: 5' IRDye 800CW
  Kd: 475 nM
[5]; label: 5' IRDye 800CW
  Kd: 166 nM
